# Measured values from patent US20230312755A1.
# B1: Romosozumab (antibody, INN chains, looked up, V domains shown)
# VH: EVQLVQSGAEVKKPGASVKVSCKASGYTFTDYNMHWVRQAPGQGLEWMGEINPNSGGAGYNQKFKGRVTMTTDTSTSTAYMELRSLRSDDTAVYYCARLGYDDIYDDWYFDVWGQGTTVTVSS
# VL: DIQMTQSPSSLSASVGDRVTITCRASQDISNYLNWYQQKPGKAPKLLIYYTSRLLSGVPSRFSGSGSGTDFTLTISSLQPEDFATYYCQQGDTLPYTFGGGTKVEIK
# Columns and labels:
# [1] = target: His-tagged human Sclerostin (NCBI reference No. NP_079513.1) (human) (UniProt Q9BQB4); assay: ELISA, plate coated with His-tagged human Sclerostin
# human Sclerostin (human) [2] = target: human Sclerostin (human) (UniProt Q9BQB4); assay: cell-based or functional assay
# human Sclerostin (human) [3] = target: human Sclerostin (human) (UniProt Q9BQB4); assay: BLI (Gator), antibody on anti-hFc biosensor, Sclerostin as analyte, 1:1 global fit
# human Sclerostin (human), sequence (Q9BQB4 24-213 limits assumed): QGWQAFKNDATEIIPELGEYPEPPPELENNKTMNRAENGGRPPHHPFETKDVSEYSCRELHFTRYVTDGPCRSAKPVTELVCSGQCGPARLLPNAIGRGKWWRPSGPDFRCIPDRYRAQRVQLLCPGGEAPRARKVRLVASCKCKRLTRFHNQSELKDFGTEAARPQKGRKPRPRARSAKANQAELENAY
# His-tagged human Sclerostin (NCBI reference No. NP_079513.1) (human), sequence (Q9BQB4 24-213 limits assumed): as above
binder,measurement,setting,value
B1,EC50,[1],0.11 nM
same,"EC50, Sclerostin-neutralisation activity in HEK293/TCF/LEF/Wnt1 cells (luciferase reporter)",human Sclerostin (human) [2],42.3 nM
same,Kd,human Sclerostin (human) [3],0.78 nM
same,koff,human Sclerostin (human) [3],0.00028 s⁻¹
same,kon,human Sclerostin (human) [3],360000 M⁻¹ s⁻¹
